Experimental data as given in article PMC4263443.

Assays:
[1] = target: recombinant S5aΔVWA (human); assay: ITC
[2] = target: recombinant full-length S5a (human) (UniProt P55036); assay: ITC
Sequence of UniProt P55036 (P55036 whole entry): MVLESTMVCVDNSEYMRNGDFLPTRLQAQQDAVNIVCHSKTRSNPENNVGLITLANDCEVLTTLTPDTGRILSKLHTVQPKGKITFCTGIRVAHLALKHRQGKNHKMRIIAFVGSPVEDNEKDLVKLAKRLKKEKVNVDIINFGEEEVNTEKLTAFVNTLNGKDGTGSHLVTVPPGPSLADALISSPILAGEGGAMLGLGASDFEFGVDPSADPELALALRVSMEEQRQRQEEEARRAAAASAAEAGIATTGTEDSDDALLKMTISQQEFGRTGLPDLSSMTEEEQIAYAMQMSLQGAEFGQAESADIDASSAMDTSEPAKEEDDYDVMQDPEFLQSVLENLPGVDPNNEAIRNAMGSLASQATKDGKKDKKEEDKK

Substance	Kd [1]	Kd [2]
monoubiquitin (from UniProt P0CG47 1-76) (natural protein)	84 µM	–
monoubiquitin (from UniProt P0CG47 1-76) (natural protein; other documents disagree on this pair)	–	112 µM
